From PMC10385363, “Enhancing the Catalytic Activity of Glycolate Oxidase from Chlamydomonas reinhardtii through Semi-Rational Design” (Microorganisms, 2023)

Columns and labels:
[1] = biological target: T1, GST-GSG-CreGO (glycolate oxidase CreGO) (Chlamydomonas reinhardtii, UniProt F8WQN2, Y27S/V111G, form not given); conditions: read-out: GST-GSG-CreGO-Y27S/V212R/V111G; 10 mM phenylhydrazine, 100 mM PBS pH 6.5, 40 °C; O2 as co-substrate; substrate range 0-100 mM; V111G is misprinted V11G in parts of the text
T1 construct: gene CHLRE_03g171300v5

purified protein = substrate: O=C(O)CO; assay: purified protein; conditions: 10 mM phenylhydrazine, 100 mM PBS pH 6.5, 40 °C, O2 as co-substrate, substrate range 0-100 mM

T1 sequence (F8WQN2 whole entry Y27S/V111G, form open): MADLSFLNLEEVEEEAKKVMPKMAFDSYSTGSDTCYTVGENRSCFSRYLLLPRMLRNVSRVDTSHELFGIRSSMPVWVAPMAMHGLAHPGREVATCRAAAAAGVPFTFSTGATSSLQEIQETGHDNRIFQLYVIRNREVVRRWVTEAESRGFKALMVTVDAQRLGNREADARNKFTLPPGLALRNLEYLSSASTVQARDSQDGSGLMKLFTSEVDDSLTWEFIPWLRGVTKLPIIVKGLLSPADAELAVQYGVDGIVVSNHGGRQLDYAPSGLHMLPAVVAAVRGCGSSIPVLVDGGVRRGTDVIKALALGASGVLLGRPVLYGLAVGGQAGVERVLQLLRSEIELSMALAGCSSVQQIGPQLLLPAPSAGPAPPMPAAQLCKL

Km [1] [µM]	Molecule	Km (purified protein) [µM]	Vmax (purified protein) [µmol/min/mg]	kcat (purified protein) [s⁻¹]	kcat/Km (purified protein) [M⁻¹ s⁻¹]
600 ± 40	O=C(O)CO [sodium glycolate]	–	–	–	–
–	GST-GSG-CreGO (glycolate oxidase CreGO) (Chlamydomonas reinhardtii) (protein) MADLSFLNLEEVEEEAKKVMPKMAFDYYSTGSDTCYTVGENRSCFSRYLLLPRMLRNVSRVDTSHELFGIRSSMPVWVAPMAMHGLAHPGREVATCRAAAAAGVPFTFSTVATSSLQEIQETGHDNRIFQLYVIRNREVVRRWVTEAESRGFKALMVTVDAQRLGNREADARNKFTLPPGLALRNLEYLSSASTVQARDSQDGSGLMKLFTSEVDDSLTWEFIPWLRGVTKLPIIVKGLLSPADAELAVQYGVDGIVVSNHGGRQLDYAPSGLHMLPAVVAAVRGCGSSIPVLVDGGVRRGTDVIKALALGASGVLLGRPVLYGLAVGGQAGVERVLQLLRSEIELSMALAGCSSVQQIGPQLLLPAPSAGPAPPMPAAQLCKL	1000 ± 50	7.2	4.9	4900
